In the RNAGym collection of RNA variant scans (doi:10.1073/pnas.2313332121):

B1: TPR t1 (parent)
chain: GACCAAUCUGCCCUCAGAGCUCGAGAACAUCUUCGGAUGCAGAGGAGGCAGGCUUCGGUGGCGCGAUAGCGCCAACGUCCUCAACCUCCAAUGCAUCCCACCACAUGAUGAUGCCUGAAGAGCCUUGGUUUUUUG

Variants of: B1
Assay: polymerase ribozyme fitness, log enrichment relative to wild type (log ratio); higher = more active; in vitro selection for triplet polymerase activity
Outline: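 A single round of triplicate in vitro selection, including frozen incubation at −7 °C, was applied to PCR-built, transcribed mutant libraries of each subunit of a heterodimeric triplet polymerase ribozyme. Illumina sequencing of input and output libraries retained genotypes with ≥10 input reads and ≥1 read per output. Fitness is the base-2 logarithm of genotype enrichment divided by wild-type enrichment, from inverse-variance-weighted replicate averages.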

| Variant | polymerase ribozyme fitness (log ratio) |
| --- | --- |
| GACCAAUCUGCCCUCAGAGCUCGAGAACAUCUUCGGAUGCAGAGGAGGCAGGCUUCUGUGGCGCGAUAACGCCAACGUCCUCAACCUCCAAUGCAUCCCACCACAUGAUGAUGCCUGAAGAGCCUUGGUUUUUUG [G57U G69A] | -2.73 |
| GACCAAUCUGCCCUCAGAGCUCGAGAACAUCUUCGGAUGCAGAGGAGGCAGGCUUCGGUGGCGCGAUAGCGCCAACGUCCACAACCUCCACUGCAUACCACCACGUGAUGAUGCCUGAAGAGGCUUGGUUUUUUG [U81A A91C C97A A105G C123G] | -8.06 |
| GACCAAUCUGCCCUCAGAGCUCGAGAACAUCUUCGGAUGCAGAGGAGGCAGGCUUAGGUGGCGCGAUAGCGCAAACGUCCUCAACCUCCAAUGCAUCCCACCACAUGAUGAUGCCUGAAGAGCCUUGGUUUUUUG [C56A C73A] | -0.651 |
| GACCAAUCUGCCCUCAGAGCUCGAGAACAUCUUCGGAUGCAGAGGAGGCAGGCUUCGGUUGCGCGAUAGCGCCAUCGUCCUCAACCUCCAAUGCAUCCCACCACAUGAUGAUGCCUCAAGAGCCUUGGUUUUUUG [G60U A75U G117C] | -3.72 |
| GACCAAUCUGCCCUCAGAGUUCGAGAACAUCUUCGGAUGCAGAGAAGGCAGGCUUCGGUGGCGCGAUAGCGCCAACGUCCUCAACCUCCAAUGCAUCCCACCACAUGAUGAUGCCUUAAGAGCCUUCGUGUUUUG [C20U G45A G117U G127C U130G] | -4.33 |
| GACAAAUCGGCCCUCAGAGCUCGAGAACAUCUUCGGAUGUAGAAGAGGCAGGCUCCGGUGGCGCGAUAGCGCCAACGUCCUCAACCUACAAUGCAUCCCACCACAUGAUGAUGCCUGAACAGCCUUGGUUUUUUG [C4A U9G C40U G44A U55C C88A G120C] | -3.07 |
| GACCAAACUGCCCUCAGAGCUCGAGAACAUCUUCGGAUGCAGAGGAGGCAGGCUUCGGUGGCGCGAUAGCGCCAACGUCCUCAACGUCCAAUGCAUCCCACCACAUGAUGAUGCCUGAAGAGCCUUGGUUUUUUG [U7A C86G] | -0.205 |
| GACCAAUGUGCCCUCAGCGCUCGAGAACAUCUUCGGAUGUAGAGGAGGCAGGCUUCGGUGGCGCGAUAGCGACAACGUCCUCAACCUCCAAUGCAUCCCACCACAUGAUGAUGCCUGAAGAGGCUUGGUUUUUUG [C8G A18C C40U C72A C123G] | 0.381 |
| GACCGAUCUGCCCUCAGAGCUCGAGAACAUCUUCGGAUGCAGAGGAGGCAGGCUUCGGUGGCGCGAUAGCGCCAACGUCCUCAACCUCCAAUGCAUCCCACCACAUGAUGAUACCUGAAGAGCCUUGGUUUUUUG [A5G G113A] | -0.636 |
| GACCAAUCUGCCCUCAGAGCUCGAGAACAUCUUCGGAUGCAGAGGAGGAAGGCUUCGGUGGCGCGAUAGCGCCAACGUCCUCAACCUCCAAUGCAUCCCACCAGAUGAUGCUGCCUGAAGAGCCUUGGUUUUUUG [C49A C104G A111C] | -6.5 |
| GACCAAUCUGCCCUCAGAGCUCGAGAACAUCUUCGCAUGCAGAGGAGGCAGGCUUCGGUGGCGCGAUAGCGCCAACGUCCUCAACCUUAAAUGCAUCCCACCACAUGAUGAUGCCUGAAGAGCCUUGGUUUUUUG [G36C C88U C89A] | -3.3 |
| GACCAAUCUACCCUCAGAGCUCGAGAACAUCUUCGGAUGCAGAGGAGGCAGGCUUCUGUGGCGCGAUAGCGACAACGUACUCAACCUCCAAUGCAACCCACCACAUGAUGAUGCCUGAAGAGCCUUGGUUUUUUG [G10A G57U C72A C79A U96A] | -2.33 |
| GGCCAGUAUGCCCUCAGAGCUCGAGAACAUCUUCGGAUGCAGAGGCGGCAGGCUUCGGUGGCGCGAUAGCGCCAACGUCCUCAACCCCCAAUGCAUCCCACCACAUGAUGAUGCCUGAAGAGCCUUGGUUUUUUG [A2G A6G C8A A46C U87C] | -0.00636 |
| GACCAAUCUGCCCUCAGAGCUCGAGAACAUCUUCGGAUGCAGAGGAGGCAGGCUUCGGUGGCGCGAUAGCGCCAACGUCCUGAACCUCCAAUGCAUCCCACCACAUGAUCAUGCCUGAAGAGCCUUGGUUUUUUG [C82G G110C] | -4.38 |
| GACCAAUCUGCCCUGAGAGCUCGAGAACAUCUUCGGAUGCAGAGCAGGCAGGUUUCGGUGGCGCGAUAGCGCCAACGUCCUCAACCUCCAUUGCAUCCCACCACAUGAUGAUGCCUGAAGAGCCUUGGUUUUUUG [C15G G45C C53U A91U] | -5.56 |
| GACCAAUAUGCCCUCAGAGCUCGAGAACAUCUUCGGAUGCAGAGGAGGCAGGCUUCGGUGGCGCGAUAGCGCCAACGUCCUCAACCUCCAAUGCAUCCCACCGCAUGAUUAUGCCUGAAGAGCCUUGGUUUUUUG [C8A A103G G110U] | -5.33 |
| GACCAAUCUGCCCUCAGAGCUCGAGAACAUCUUCGGAUGCAGAGGGGGCAGGCUUCGGUGGCGCGAUAGCGCCAACGUCCUCAACGUCCAAUGCAUCCCAACACAUGAUGAUGUCUGAAGAGCCUUGGUUUUUUG [A46G C86G C101A C114U] | -4.69 |
| GACCCAUCUGCCCUCAGAGCUCGAGAACAUCUUCGGAUGCAGAGGAGGCAGGCUUCGGUGGCGCGAUAGCCCCAACGUCCUCAACCUCUAAUGCAUCCCACCACAUGAUGAUGCCUUAAGAGCCUUGGUUCUUUG [A5C G71C C89U G117U U131C] | -5.27 |
| GACCAGUCUGCCCUCAGAGCUCGAGAACAUCUUCGGAUGCAGAGGAGGCAGGCUUCGGUGGCGCGAUAGCGCCAACGUCCUCAACCUCCAAUGCAUCCAACCACAUGAUGAUGCCUGAAGAGUCUUGGUUUUUUG [A6G C99A C123U] | -5.05 |
| GACCAAUCUGCUCUCAGAGCUCGAGAACAUCUUCGGAUGCAGAGGAGGCAGGCUUCGGUGGCGCGAUAGCGCCAACGUCCUCCACCUCCAAUGCAUCCCACCACAUGAUGAUGACUGAAGAGGGUUGGUUUUUUG [C12U A83C C114A C123G C124G] | -0.26 |
| GCCCAAGCUGCCCUCAGAGCUCGAGAACAUCUUCGGAUGCAGCGGAGGCAGGCUUCGGUGGCCCGAUAGCGCCAACGUCCUCAACCUCCAAUGCAUCCCACCACAUGAUGAUGCUUGAAGAGCCUUGGUUUUUUG [A2C U7G A43C G63C C115U] | -4.87 |
